Reference: patent US20250090677A1 (MULTITUDE THERAPEUTICS, published 2025)

Key:
[1] = biological target: T1, human CDH10-ECD-His (human, UniProt Q9Y6N8 55-613); assay: ELISA, antigen coated at 1 ug/mL, 3-fold dilutions of CL069707-H1L1, HRP anti-human antibody, OD450
T1 construct: extracellular domain; Bought protein; also called CDH10-ECD-His protein; not shown: His tag
T1 sequence (looked up): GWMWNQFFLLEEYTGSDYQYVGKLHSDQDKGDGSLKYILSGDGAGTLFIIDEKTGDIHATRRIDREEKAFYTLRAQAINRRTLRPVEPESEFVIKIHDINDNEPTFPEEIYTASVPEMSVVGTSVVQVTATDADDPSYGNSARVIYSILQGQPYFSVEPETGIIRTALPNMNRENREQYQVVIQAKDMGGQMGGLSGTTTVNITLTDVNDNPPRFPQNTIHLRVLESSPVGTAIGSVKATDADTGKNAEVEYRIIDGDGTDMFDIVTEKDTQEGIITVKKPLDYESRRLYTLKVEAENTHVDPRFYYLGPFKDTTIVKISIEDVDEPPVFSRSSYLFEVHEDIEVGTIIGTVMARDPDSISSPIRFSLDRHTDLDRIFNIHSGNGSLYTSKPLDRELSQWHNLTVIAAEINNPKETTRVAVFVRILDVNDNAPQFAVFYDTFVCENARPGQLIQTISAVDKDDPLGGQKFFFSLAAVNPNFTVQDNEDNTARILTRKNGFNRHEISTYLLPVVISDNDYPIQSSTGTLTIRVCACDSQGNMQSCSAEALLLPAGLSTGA
Protocol: (§1) CDH9 and […] are the most closely related family members to CDH6. Binding of CL069707-H1L1 on human CDH6, CDH9 and CDH10 ECD domains were analyzed by ELISA Binding Assay. Human […], CDH9-ECD-His and CDH10-ECD-His antigens were obtained from Acro Biosystems, Inc. 100 μL of 1 μg/mL of the antigens diluted in PBS were added to 96 well plates and incubated in 4° C. overnight. The plates were washed 3 times with 300 μL of washing buffer. Then 100 μL/well of 1% BSA blocking reagent were added to the plates, and incubated at 37° C. for 1 h then the blocking reagent were discarded. A 3-fold serial dilution of CL069707-H1L1 was added to the plates and then incubated at 37° C. for 1 h. Then the plates were washed 3 times with 300 μL of washing buffer. 100 μL/well of HRP-conjugated anti-Human antibody diluted in 1% BSA were added to the plates and then incubated at 37° C. for 1 h. The plates were washed 3 times with 300 μL of washing buffer. 100 μL/well of TMB substrate were added to the plates and incubated for about 10 min in room temperature. Then the reaction was stopped with 100 μL/well of stopping solution. OD450 was read with a plate reader and the data were processed.

[2] = biological target: T2, human CDH9-ECD-His (human, UniProt Q9ULB4 54-615); assay: as above
T2 construct: extracellular domain; Bought protein; also called CDH9-ECD-His protein; not shown: His tag
T2 sequence (looked up): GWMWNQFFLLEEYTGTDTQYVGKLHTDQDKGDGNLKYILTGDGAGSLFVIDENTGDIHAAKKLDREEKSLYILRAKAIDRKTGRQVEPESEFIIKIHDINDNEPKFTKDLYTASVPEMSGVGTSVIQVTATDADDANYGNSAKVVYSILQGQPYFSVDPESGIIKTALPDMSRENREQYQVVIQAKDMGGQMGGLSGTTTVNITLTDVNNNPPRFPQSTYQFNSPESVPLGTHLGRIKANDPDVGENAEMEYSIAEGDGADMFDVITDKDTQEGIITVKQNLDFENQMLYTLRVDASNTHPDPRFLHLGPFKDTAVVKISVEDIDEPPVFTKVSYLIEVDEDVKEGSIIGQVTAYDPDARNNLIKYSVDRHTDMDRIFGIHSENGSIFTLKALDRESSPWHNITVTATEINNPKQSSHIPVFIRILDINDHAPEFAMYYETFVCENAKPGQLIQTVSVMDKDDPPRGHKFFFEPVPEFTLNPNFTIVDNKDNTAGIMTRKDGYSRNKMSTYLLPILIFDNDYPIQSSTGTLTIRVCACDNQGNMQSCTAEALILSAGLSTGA
Protocol: as §1

[3] = biological target: T3, Human CDH6-ECD-His (human, UniProt P55285 54-615); assay: ELISA, antigen coated at 1 ug/mL
T3 construct: extracellular domain; Bought protein; also called human CDH6-ECD-His recombinant protein; Human CDH6-EC6D-His; not shown: His tag
T3 sequence (looked up): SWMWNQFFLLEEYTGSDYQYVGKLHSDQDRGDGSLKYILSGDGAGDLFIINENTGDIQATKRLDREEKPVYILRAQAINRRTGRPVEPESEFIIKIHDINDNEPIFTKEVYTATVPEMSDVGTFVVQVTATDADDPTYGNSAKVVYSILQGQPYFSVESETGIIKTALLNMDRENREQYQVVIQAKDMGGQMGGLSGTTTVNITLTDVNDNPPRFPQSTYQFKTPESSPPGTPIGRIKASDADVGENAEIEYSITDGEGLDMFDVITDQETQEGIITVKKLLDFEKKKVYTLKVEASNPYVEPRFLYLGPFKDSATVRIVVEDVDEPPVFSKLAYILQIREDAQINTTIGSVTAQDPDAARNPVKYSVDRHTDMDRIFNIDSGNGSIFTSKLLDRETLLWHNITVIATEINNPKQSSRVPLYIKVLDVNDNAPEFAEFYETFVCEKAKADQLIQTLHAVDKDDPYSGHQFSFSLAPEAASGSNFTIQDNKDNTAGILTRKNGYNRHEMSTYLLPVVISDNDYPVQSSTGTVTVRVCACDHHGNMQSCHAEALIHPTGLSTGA
Protocol: as §1

binding result [1]: no binding (tested: 100 nM) | binding result [2]: no binding (tested: 100 nM) | EC50 [3]: 0.1 nM
B1: CL069707-H1L1 (antibody, human IgG1, kappa, V domains shown)
VH: EVQLVESGGGLVQPGGSLRLSCAASGFTFTTYAMNWVRQAPGKGLEWVARIRIKNNNYATYYADSVTDRFTISRDDSKNSLYLQMNSLKTEDTAVYYCVRPDYGNYGLAYWGQGTLVTVSS
VL: DIQLTQSPSSLSASVGDRVTITCSASSSISSHYLHWYQQKPGKSPKLLIYRSFYLASGVPSRFSGSGSGTDFTLTISSLQPEDFATYYCQQDIVPLTFGQGTKLEIKR
notes: Humanized IgG1/kappa, produced in 293 cells; also called humanized CL069707-H1L1
